From patent US5849890, “High affinity oligonucleotide ligands to chorionic gonadotropin hormone and related glycoprotein hormones” (NeXstar Pharmaceuticals, Inc.)

Legend:
[1] = target: T1, human chorionic gonadotropin (hCG) heterodimer (Homo sapiens, UniProt P01215;P0DN86 P01215:25-116,P0DN86:21-165); assay: filter; conserved region mutated; conditions: tags: Calbiochem or Vitro Diagnostics (14,000 IU/mg); chain copies: alpha/beta heterodimer (stated); label: 32P
Excerpt: (§1) PCR products generated from the RNA population isolated after six cycles of selection were cloned into pUC18 and 43 clones were sequenced (Table 13). As with the high affinity ligands selected in the first SELEX experiment in this example, 37 of the sequenced ligands are capable of assuming a stem-loop structure which places the conserved, unselected, 13-nt sequence in the "loop" structure.

[2] = target: T1, human chorionic gonadotropin (hCG) …; assay: filter; TEM or TESM, 2.1 mM Mg, pH 6.5, 37 C; conditions: tags: Calbiochem or Vitro Diagnostics (14,000 IU/mg); chain copies: alpha/beta heterodimer (stated); label: 32P; G4 (RNase T1 protection in K+)
Protocol: (§2) Internally-labeled RNA transcripts were prepared by including [α-^32P]ATP in T7 RNA polymerase transcription reactions. Full-length transcripts were purified on 8% denaturing polyacrylamide gels to ensure size homogeneity. Gel-purified RNA was diluted to a concentration of ~5 nM in TEM buffer, heated to 80° C. then chilled on ice to facilitate secondary structure formation. RNA concentrations were kept lower than 100 pM in binding reactions. Briefly, equal amounts of RNA were incubated with varying amounts of hormone in 50 μL of TEM buffer for 10 minutes at 37° C. RNA-protein mixtures were passed through pre-wet nitrocellulose filters (0.2μ), and the filters were immediately washed with 5 mL of binding buffer. Radioactivity retained on filters was determined by liquid scintillation counting. The quantities of RNA bound to filters in the absence of protein was determined and used for background correction. The percentage of input RNA retained on each filter was plotted against the corresponding log protein concentration. The nonlinear least square method was used to obtain the dissociation constant (K_d) (Jellinek et al. (1993) Proc. Natl. Acad. Sci. U.S.A. 90:11227–11231; Irvine et al. (1991) J. Mol. Biol. 222:739–761).
(§3) By incorporating a counterselection step, SELEX allowed the isolation of hCG-specific RNA ligands (Example 5, infra).

[3] = target: T2, human follicle stimulating hormone (hFSH) (Homo sapiens, UniProt P01215;P01225 P01215:25-116,P01225:19-129); assay: filter; Mg, pH 6.5; conditions: tags: Becton Dickinson; chain copies: alpha/beta heterodimer (inferred); label: 32P; G4 (RNase T1 protection in K+)
T2 sequence (P01215 25-116, chain 1 of 2): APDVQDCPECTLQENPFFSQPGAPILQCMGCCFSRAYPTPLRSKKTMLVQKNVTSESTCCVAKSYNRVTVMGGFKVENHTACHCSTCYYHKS
T2 sequence (P01225 19-129, chain 2 of 2): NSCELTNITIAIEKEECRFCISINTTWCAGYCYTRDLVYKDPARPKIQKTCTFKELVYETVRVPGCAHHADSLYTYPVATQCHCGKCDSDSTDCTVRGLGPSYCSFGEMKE
Protocol: as §2, §3

[4] = target: T3, human luteinizing hormone (hLH) (Homo sapiens, UniProt P01215;P01229 P01215:25-116,P01229:21-141); assay: filter; Mg, pH 6.5; conditions: tags: Becton Dickinson (2'-NH2 work); Scripps/Vitro Diagnostics (2'-F work); chain copies: alpha/beta heterodimer (inferred); label: 32P; G4 (RNase T1 protection in K+)
T3 sequence (P01215 25-116, chain 1 of 2): as the sequence (P01215 25-116, chain 1 of 2) above
T3 sequence (P01229 21-141, chain 2 of 2): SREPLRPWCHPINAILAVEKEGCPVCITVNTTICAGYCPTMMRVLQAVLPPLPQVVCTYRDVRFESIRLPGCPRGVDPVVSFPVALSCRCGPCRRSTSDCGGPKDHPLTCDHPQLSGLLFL
Protocol: as §2, §3

[5] = target: T4, human thyroid stimulating hormone (hTSH) (Homo sapiens, UniProt P01215;P01222 P01215:25-116,P01222:21-132); assay: filter; Mg, pH 6.5; conditions: tags: Becton Dickinson; chain copies: alpha/beta heterodimer (inferred); label: 32P; G4 (RNase T1 protection in K+)
T4 sequence (P01215 25-116, chain 1 of 2): as the sequence (P01215 25-116, chain 1 of 2) above
T4 sequence (P01222 21-132, chain 2 of 2): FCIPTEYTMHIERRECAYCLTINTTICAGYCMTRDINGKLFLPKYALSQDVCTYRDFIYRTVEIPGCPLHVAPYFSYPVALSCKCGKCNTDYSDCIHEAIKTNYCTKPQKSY
Protocol: as §2, §3

[6] = target: T1, human chorionic gonadotropin (hCG) …; assay: filter; Mg, pH 6.5; Kd rises >25-fold at pH 7.0; conditions: tags: Calbiochem or Vitro Diagnostics (14,000 IU/mg); chain copies: alpha/beta heterodimer (stated); label: 32P
[7] = target: glycoprotein hormone common alpha-subunit (UniProt P01215 P01215:25-116); assay: filter; conditions: tags: UCB-bioproducts; label: 32P
Sequence of glycoprotein hormone common alpha-subunit (P01215 25-116, one chain of several): as the sequence (P01215 25-116, chain 1 of 2) above
Protocol: as §2, §3

hCG beta-subunit = hCG beta-subunit (Homo sapiens, UniProt P0DN86 P0DN86:21-165); assay: filter; conditions: tags: Calbiochem or Vitro Diagnostics; label: 32P
Protocol: as §2, §3

[8] = target: T3, human luteinizing hormone (hLH); assay: filter; Mg, pH 6.5; <2-fold change at pH 7.0; conditions: tags: Becton Dickinson (2'-NH2 work); Scripps/Vitro Diagnostics (2'-F work); chain copies: alpha/beta heterodimer (inferred); label: 32P
[9] = target: T1, human chorionic gonadotropin (hCG) …; assay: filter; no significant stem; conditions: tags: Calbiochem or Vitro Diagnostics (14,000 IU/mg); chain copies: alpha/beta heterodimer (stated); label: 32P
Excerpt: as §1

[10] = target: T4, human thyroid stimulating hormone (hTSH); assay: filter; not pH sensitive, pH 5.8-7.2; conditions: tags: Becton Dickinson; chain copies: alpha/beta heterodimer (inferred); label: 32P; possible hairpin; no G4 by RNase T1
[11] = target: T2, human follicle stimulating hormone …; assay: filter; conditions: tags: Becton Dickinson; chain copies: alpha/beta heterodimer (inferred); label: 32P; possible hairpin; no G4 by RNase T1
[12] = target: T1, human chorionic gonadotropin (hCG) …; assay: filter; +/- 3 nM (Table 5); conditions: tags: Calbiochem or Vitro Diagnostics (14,000 IU/mg); chain copies: alpha/beta heterodimer (stated); label: 32P; G4 (RNase T1 protection in K+)
[13] = target: T1, human chorionic gonadotropin (hCG) …; assay: filter; +/- 13 nM; conditions: tags: Calbiochem or Vitro Diagnostics (14,000 IU/mg); chain copies: alpha/beta heterodimer (stated); label: 32P; intramolecular G4
Protocol: as §2

[14] = target: T1, human chorionic gonadotropin (hCG) …; assay: filter; conditions: tags: Calbiochem or Vitro Diagnostics (14,000 IU/mg); chain copies: alpha/beta heterodimer (stated); label: 32P
[15] = target: T1, human chorionic gonadotropin (hCG) …; assay: filter; +/- 9 nM; conditions: tags: Calbiochem or Vitro Diagnostics (14,000 IU/mg); chain copies: alpha/beta heterodimer (stated); label: 32P; intramolecular G4
Protocol: as §2

[16] = target: T3, human luteinizing hormone (hLH); assay: filter; conditions: tags: Becton Dickinson (2'-NH2 work); Scripps/Vitro Diagnostics (2'-F work); chain copies: alpha/beta heterodimer (inferred); label: 32P; G4 (RNase T1 protection in K+)
Protocol: as §2, §3

[17] = target: T1, human chorionic gonadotropin (hCG) …; assay: filter; 5.8 +/- 2.8 nM in Table 5; conditions: tags: Calbiochem or Vitro Diagnostics (14,000 IU/mg); chain copies: alpha/beta heterodimer (stated); label: 32P; G4 (RNase T1 protection in K+)
[18] = target: T1, human chorionic gonadotropin (hCG) …; assay: filter; conditions: tags: Calbiochem or Vitro Diagnostics (14,000 IU/mg); chain copies: alpha/beta heterodimer (stated); label: 32P; two hairpins
[19] = target: T1, human chorionic gonadotropin (hCG) …; assay: filter; SBB buffer; conditions: tags: Calbiochem or Vitro Diagnostics (14,000 IU/mg); chain copies: alpha/beta heterodimer (stated); label: 32P; hairpin
[20] = target: T1, human chorionic gonadotropin (hCG) …; assay: filter; in urine; conditions: tags: Calbiochem or Vitro Diagnostics (14,000 IU/mg); chain copies: alpha/beta heterodimer (stated); label: 32P; hairpin
[21] = target: T1, human chorionic gonadotropin (hCG) …; assay: filter; 17.2% bound at 100 nM; conditions: tags: Calbiochem or Vitro Diagnostics (14,000 IU/mg); chain copies: alpha/beta heterodimer (stated); label: 32P; hairpin

T1 sequence (P01215 25-116, chain 1 of 2, other chains not shown): as the sequence (P01215 25-116, chain 1 of 2) above

B1: 2nd generation ligand 8 (ssRNA)
RNA: GGGAGGACGAUGCGGUUCGAUUCCAAGUUGAACGAUCCUCCUUUUGAUUAGACCAGACGACUCGCCCGA
modifications: 2'-F all pyrimidines
- binding signal [1]: 0.73 % bound at 100 nM

B2: H-30 (ssRNA)
RNA: GGGAGGACGAUGCGGUACUGUAAAACAAUCUGGAGGAGGGUCUAGGGGAUGGUGGCAGACGACUCGCCCGA
modifications: 2'-NH2 all pyrimidines
- Kd [2]: 20 nM
- Kd [3]: ~1700 nM
- Kd [4]: 51 nM
- Kd [5]: ~1600 nM

B3: H-42 (ssRNA)
RNA: GGGAGGACGAUGCGGACAAGGGCCUGAGUGUGGAGGGCACGUGGAGGGGACUGGCCAGACGACUCGCCCGA
modifications: 2'-NH2 all pyrimidines
- Kd [6]: 6.2 nM
- Kd [7]: ~1400 nM
- Kd (hCG beta-subunit): ~200 nM
- Kd [8]: 15 nM

B4: 2nd generation ligand 82 (ssRNA)
RNA: GGGAGGACGAUGCGGUAACAGUCGAUUCUUGAACGAUCCUUUCCACUUCAACCGCAGACGACUCGCCCGA
modifications: 2'-F all pyrimidines
- binding signal [9]: 0 % bound at 100 nM

B5: T-15 (ssRNA)
RNA: GGGAGGACGAUGCGGAUGUUGGCAGCAGGGUCCGACGGCGUAACCUUGCCAGCUGCAGACGACUCGCCCGA
modifications: 2'-NH2 all pyrimidines
- Kd [10]: 14 nM
- Kd [11]: ~200 nM

B6: H-17 (ssRNA)
RNA: GGGAGGACGAUGCGGAGGGAACGCGGAGGGGUGUGUCCCCCAGACUACAAGGCGGCAGACGACUCGCCCGA
modifications: 2'-NH2 all pyrimidines
- Kd [12]: 7.5 nM

B7: delta17 (ssRNA)
RNA: GGAGGACGAUGCGGAGGGAACGCGGAGGGGUG
modifications: 2'-NH2 all pyrimidines
- Kd [13]: 25 nM

B8: 2nd generation ligand 59 (ssRNA)
RNA: GGGAGGACGAUGCGGUAACUCUUAAUUCUUGAACAAUCCUUGAAUUUAGCGGACCAGACGACUCGCCCGA
modifications: 2'-F all pyrimidines
- binding signal [1]: 1.88 % bound at 100 nM

B9: Class 1 ligand 28 (ssRNA)
RNA: GGGAGACAAGAAUAAACGCUCAAACAGCGAUUGAACGAUCCUUUCAGCUGAUGGGUACGGGAUUCGACAGGAGGCUCACAACAGGC
modifications: 2'-F all pyrimidines
- binding signal [14]: 0.58 % bound at 100 nM

B10: delta25 (ssRNA)
RNA: GGAGGACGAUGCGGAAAGGAGGAGGCUGGGUGCGUC
modifications: 2'-NH2 all pyrimidines
- Kd [15]: 24 nM

B11: H-25 (ssRNA)
RNA: GGGAGGACGAUGCGGAAAGGAGGAGGCUGGGUGCGUCAAGAGUUCUCCCGAGCGCCAGACGACUCGCCCGA
modifications: 2'-NH2 all pyrimidines
- Kd [16]: 17.5 nM
- Kd [17]: 6 nM

B12: ligand 25/9 dimer (ssRNA)
RNA: GGGAGACAAGAAUAAACGCUCAACAGUGAUUGAACGAUCCUUUCAGCUGGUGGGUAUGGUCCCGGAGUCUCGUUGGUCGUUGAACGAUCCUUCGACAGGAGGCUCA
modifications: 2'-F all pyrimidines
- Kd [18]: ~200 nM

B13: hCG ligand 9TR1 (ssRNA)
RNA: GGGAGUCUCGUUGGUCGUUGAACGAUCCUUCGACAGGAGGCUCA
modifications: 2'-F all pyrimidines
- Kd [19]: 200 nM
- Kd [20]: 100 nM

B14: 2nd generation ligand 84 (ssRNA)
RNA: GGGAGGACGAUGCGGUUGGUUAUCCAUGUUGAACGUUCCUUCAUGUCGAAUAUGCAGACGACUCGCCCGA
modifications: 2'-F all pyrimidines
- binding signal [1]: 0.24 % bound at 100 nM

B15: 2nd generation ligand 37 (ssRNA)
RNA: GGGAGGACGAUGCGGAAUUCCCCCAAGAUUGAACGGUCCUUUCUCGCAGAUGUUCAGACGACUCGCCCGA
modifications: 2'-F all pyrimidines
- binding signal [1]: 0 % bound at 100 nM

B16: 2nd generation ligand 18 (ssRNA)
RNA: GGGAGGACGAUGCGGCAUUCGCUGAUUCUUGAACGAUCCUUGAUGAUGUGGAUGCAGACGACUCGCCCGA
modifications: 2'-F all pyrimidines
- Kd [21]: 150 nM

B17: 2nd generation ligand 76 (ssRNA)
RNA: GGGAGGACGAUGCGGACCGACUAAAUGAUUGAACGAUCCUUAUUGUCUCUAUCACAGACGACUCGCCCGA
modifications: 2'-F all pyrimidines
- binding signal [9]: 0.2 % bound at 100 nM

B18: 2nd generation ligand 7 (ssRNA)
RNA: GGGAGGACGAUGCGGAUGAGCUUGAUAAUGGAACGAUCCUUUUAACGGUUCUUCCAGACGACUCGCCCGA
modifications: 2'-F all pyrimidines
- binding signal [1]: 0 % bound at 100 nM

B19: 2nd generation ligand 77 (ssRNA)
RNA: GGGAGGACGAUGCGGCAGUGUCAACAUCUUGAACGAUCCUUUUUUUCAGCGCGUCAGACGACUCGCCCGA
modifications: 2'-F all pyrimidines
- binding signal [9]: 0.42 % bound at 100 nM

B20: 2nd generation ligand 95 (ssRNA)
RNA: GGGAGGACGAUGCGGGUUUUCCUACUAGUUGAAUGAUCCUUCUAGUUAGAUGCCAGACGACUCGCCCGA
modifications: 2'-F all pyrimidines
- binding signal [1]: 1.57 % bound at 100 nM
